Measurements published in patent US20240182536A1 (MURAL ONCOLOGY, published 2024).

What was measured:
[1] = molecular target: T1, IL-18 receptors on HEK-Blue IL-18 reporter cells (UniProt Q13478 19-541; O95256 20-599, limits assumed); test: cell-based or functional assay
T1 sequence (looked up) 1: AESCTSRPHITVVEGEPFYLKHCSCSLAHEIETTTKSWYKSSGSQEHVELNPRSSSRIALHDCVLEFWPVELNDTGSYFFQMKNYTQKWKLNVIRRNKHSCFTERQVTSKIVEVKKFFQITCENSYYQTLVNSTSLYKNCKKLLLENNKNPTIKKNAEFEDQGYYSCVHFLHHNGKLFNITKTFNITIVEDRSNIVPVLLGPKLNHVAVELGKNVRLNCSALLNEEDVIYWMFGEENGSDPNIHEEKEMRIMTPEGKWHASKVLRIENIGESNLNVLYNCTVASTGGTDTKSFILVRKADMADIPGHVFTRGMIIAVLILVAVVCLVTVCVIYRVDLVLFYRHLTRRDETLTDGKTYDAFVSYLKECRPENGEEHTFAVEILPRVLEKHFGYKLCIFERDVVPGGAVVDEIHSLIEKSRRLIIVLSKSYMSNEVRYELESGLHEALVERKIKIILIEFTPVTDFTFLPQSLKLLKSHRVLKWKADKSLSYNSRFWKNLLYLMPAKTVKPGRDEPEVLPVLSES
T1 sequence (looked up) 2: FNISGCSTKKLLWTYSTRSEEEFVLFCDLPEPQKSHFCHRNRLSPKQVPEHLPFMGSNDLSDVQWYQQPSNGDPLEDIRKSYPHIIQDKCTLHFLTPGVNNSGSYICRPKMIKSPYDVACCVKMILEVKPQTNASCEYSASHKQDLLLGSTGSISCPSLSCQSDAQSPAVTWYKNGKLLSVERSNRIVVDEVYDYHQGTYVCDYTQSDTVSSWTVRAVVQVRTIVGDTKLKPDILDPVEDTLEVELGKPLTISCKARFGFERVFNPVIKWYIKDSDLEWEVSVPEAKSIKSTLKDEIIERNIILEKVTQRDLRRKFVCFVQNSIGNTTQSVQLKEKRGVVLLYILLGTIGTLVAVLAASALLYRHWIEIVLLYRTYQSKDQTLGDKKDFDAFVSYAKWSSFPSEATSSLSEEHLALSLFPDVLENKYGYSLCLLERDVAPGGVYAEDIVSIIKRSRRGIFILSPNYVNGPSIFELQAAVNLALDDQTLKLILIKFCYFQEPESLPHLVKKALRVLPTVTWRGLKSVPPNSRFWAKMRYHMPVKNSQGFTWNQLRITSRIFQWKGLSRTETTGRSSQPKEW

[2] = molecular target: T2, interleukin 18 binding protein (IL-18BP) (UniProt O95998 31-194); test: cell-based or functional assay
T2 sequence (looked up): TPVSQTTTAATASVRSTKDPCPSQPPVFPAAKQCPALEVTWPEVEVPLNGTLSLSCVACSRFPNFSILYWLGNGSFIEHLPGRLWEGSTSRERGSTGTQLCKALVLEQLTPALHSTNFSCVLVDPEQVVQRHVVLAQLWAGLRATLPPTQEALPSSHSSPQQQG

| Binder | HEK-Blue activity, No BP, DF-10000 [1] | HEK-Blue activity, No BP, DF-100,000 [1] | HEK-Blue activity, No BP, DF-1,000,000 [1] | HEK-Blue activity, +100 nM BP, DF-10000 [2] | HEK-Blue activity, +100 nM BP, DF-100,000 [2] | HEK-Blue activity, +100 nM BP, DF-1,000,000 [2] | Ratio (-BP/+BP), DF-10000 [2] | Ratio (-BP/+BP), DF-100,000 [2] | Ratio (-BP/+BP), DF-1,000,000 [2] |
| --- | --- | --- | --- | --- | --- | --- | --- | --- | --- |
| IL-18 variant K53H, S55Q (ligand) YFGKLESKLSVIRNLNDQVLFIDQGNRPLFEDMTDSDMRDNAPRTIFIISMYHDQQPRGMAVTISVKSEKISTLSSENKIISFKEMNPPDNIKDTKSDIIFFQRSVPGHDNKMQFESSSYEGYFLASEKERDLFKLILKKEDELGDRSIMFTVQNED | 0.14 | 0.1 | 0.09 | 0.14 | 0.1 | 0.1 | 1.03 | 1.03 | 0.91 |
| IL-18 variant K53H, S55M, T63S (ligand) YFGKLESKLSVIRNLNDQVLFIDQGNRPLFEDMTDSDMRDNAPRTIFIISMYHDMQPRGMAVSISVKSEKISTLSSENKIISFKEMNPPDNIKDTKSDIIFFQRSVPGHDNKMQFESSSYEGYFLASEKERDLFKLILKKEDELGDRSIMFTVQNED | 0.13 | 0.1 | 0.09 | 0.18 | 0.12 | 0.11 | 0.72 | 0.83 | 0.83 |
| IL-18 variant K53L, S55E (ligand) YFGKLESKLSVIRNLNDQVLFIDQGNRPLFEDMTDSDMRDNAPRTIFIISMYLDEQPRGMAVTISVKSEKISTLSSENKIISFKEMNPPDNIKDTKSDIIFFQRSVPGHDNKMQFESSSYEGYFLASEKERDLFKLILKKEDELGDRSIMFTVQNED | 0.14 | 0.1 | 0.09 | 0.12 | 0.09 | 0.09 | 1.12 | 1.07 | 1.01 |
| IL-18 variant K53D, S55E (ligand) YFGKLESKLSVIRNLNDQVLFIDQGNRPLFEDMTDSDMRDNAPRTIFIISMYDDEQPRGMAVTISVKSEKISTLSSENKIISFKEMNPPDNIKDTKSDIIFFQRSVPGHDNKMQFESSSYEGYFLASEKERDLFKLILKKEDELGDRSIMFTVQNED | 0.13 | 0.09 | 0.09 | 0.11 | 0.09 | 0.08 | 1.22 | 1.07 | 1.08 |
| IL-18 variant K53H, S55G (ligand) YFGKLESKLSVIRNLNDQVLFIDQGNRPLFEDMTDSDMRDNAPRTIFIISMYHDGQPRGMAVTISVKSEKISTLSSENKIISFKEMNPPDNIKDTKSDIIFFQRSVPGHDNKMQFESSSYEGYFLASEKERDLFKLILKKEDELGDRSIMFTVQNED | 0.13 | 0.1 | 0.08 | 0.12 | 0.09 | 0.08 | 1.08 | 1.04 | 1.02 |
| IL-18 variant S36W, D37E, D40F, N41I, K53D, S55N (ligand) YFGKLESKLSVIRNLNDQVLFIDQGNRPLFEDMTDWEMRFIAPRTIFIISMYDDNQPRGMAVTISVKSEKISTLSSENKIISFKEMNPPDNIKDTKSDIIFFQRSVPGHDNKMQFESSSYEGYFLASEKERDLFKLILKKEDELGDRSIMFTVQNED | 0.13 | 0.14 | 0.13 | 0.2 | 0.13 | 0.12 | 0.68 | 1.07 | 1.05 |
| IL-18 variant K53D, S55N, H109I (ligand) YFGKLESKLSVIRNLNDQVLFIDQGNRPLFEDMTDSDMRDNAPRTIFIISMYDDNQPRGMAVTISVKSEKISTLSSENKIISFKEMNPPDNIKDTKSDIIFFQRSVPGIDNKMQFESSSYEGYFLASEKERDLFKLILKKEDELGDRSIMFTVQNED | 0.13 | 0.12 | 0.09 | 0.1 | 0.09 | 0.09 | 1.28 | 1.42 | 0.99 |
| IL-18 variant K53T, S55G, P107A, H109Q (ligand) YFGKLESKLSVIRNLNDQVLFIDQGNRPLFEDMTDSDMRDNAPRTIFIISMYTDGQPRGMAVTISVKSEKISTLSSENKIISFKEMNPPDNIKDTKSDIIFFQRSVAGQDNKMQFESSSYEGYFLASEKERDLFKLILKKEDELGDRSIMFTVQNED | 0.13 | 0.1 | 0.11 | 0.12 | 0.16 | 0.12 | 1.1 | 0.63 | 0.87 |
| IL-18 variant K53H, S55M (ligand) YFGKLESKLSVIRNLNDQVLFIDQGNRPLFEDMTDSDMRDNAPRTIFIISMYHDMQPRGMAVTISVKSEKISTLSSENKIISFKEMNPPDNIKDTKSDIIFFQRSVPGHDNKMQFESSSYEGYFLASEKERDLFKLILKKEDELGDRSIMFTVQNED | 0.13 | 0.1 | 0.09 | 0.12 | 0.09 | 0.09 | 1.12 | 1.03 | 1.09 |
| IL-18 variant K53S, S55F, T63S, R104K, H109Y (ligand) YFGKLESKLSVIRNLNDQVLFIDQGNRPLFEDMTDSDMRDNAPRTIFIISMYSDFQPRGMAVSISVKSEKISTLSSENKIISFKEMNPPDNIKDTKSDIIFFQKSVPGYDNKMQFESSSYEGYFLASEKERDLFKLILKKEDELGDRSIMFTVQNED | 0.14 | 0.09 | 0.09 | 0.13 | 0.09 | 0.09 | 1.03 | 1 | 0.99 |
| IL-18 variant K53D, S55T, H109I (ligand) YFGKLESKLSVIRNLNDQVLFIDQGNRPLFEDMTDSDMRDNAPRTIFIISMYDDTQPRGMAVTISVKSEKISTLSSENKIISFKEMNPPDNIKDTKSDIIFFQRSVPGIDNKMQFESSSYEGYFLASEKERDLFKLILKKEDELGDRSIMFTVQNED | 0.13 | 0.09 | 0.08 | 0.12 | 0.09 | 0.09 | 1.1 | 0.97 | 0.98 |
| IL-18 variant T34E, N41D, K53N, S55R (ligand) YFGKLESKLSVIRNLNDQVLFIDQGNRPLFEDMEDSDMRDDAPRTIFIISMYNDRQPRGMAVTISVKSEKISTLSSENKIISFKEMNPPDNIKDTKSDIIFFQRSVPGHDNKMQFESSSYEGYFLASEKERDLFKLILKKEDELGDRSIMFTVQNED | 0.14 | 0.1 | 0.09 | 0.1 | 0.13 | 0.09 | 1.42 | 0.74 | 1.05 |
